Among the data in PMC9867282 are percent of cells with a positive PLA signal values, retold here.

The test deals with cytosolic carboxypeptidase 6 (CCP6), endogenous (human (endogenous in HEK 293T)) (UniProt Q5VU57). Briefly: proximity ligation; Duolink PLA in HEK 293T cells fixed with 4% paraformaldehyde; primary antibodies against the two proteins; confocal microscopy; three independent experiments, at least 75 cells in total.
Sequence of UniProt Q5VU57 (Q5VU57 whole entry): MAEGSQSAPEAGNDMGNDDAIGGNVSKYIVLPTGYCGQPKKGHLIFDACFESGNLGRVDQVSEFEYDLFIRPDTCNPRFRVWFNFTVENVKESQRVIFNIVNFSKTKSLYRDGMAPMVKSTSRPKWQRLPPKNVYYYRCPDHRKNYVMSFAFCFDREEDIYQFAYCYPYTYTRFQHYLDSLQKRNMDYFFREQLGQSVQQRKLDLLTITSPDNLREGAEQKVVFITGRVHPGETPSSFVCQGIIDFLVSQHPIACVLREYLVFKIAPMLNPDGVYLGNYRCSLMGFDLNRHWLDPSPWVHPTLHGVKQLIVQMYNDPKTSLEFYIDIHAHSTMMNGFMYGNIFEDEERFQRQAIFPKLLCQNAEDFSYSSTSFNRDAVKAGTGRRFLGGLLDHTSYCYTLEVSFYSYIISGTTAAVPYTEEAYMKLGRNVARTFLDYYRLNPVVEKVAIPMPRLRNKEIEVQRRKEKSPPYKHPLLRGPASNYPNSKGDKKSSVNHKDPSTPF

“NudC (from UniProt Q9Y266 1-331) (natural protein)” registered a percent of cells with a positive PLA signal of 52%.
“Progesterone-induced-blocking factor 1 PIBF1 (from UniProt Q8WXW3 1-757) (natural protein)” gave a percent of cells with a positive PLA signal of 37%.
The figure for “Pericentriolar material 1 protein PCM1 (from UniProt Q15154 1-2024) (natural protein)” is 73%.
